{"source": "paper PMC10902354", "about": "“Deficiency in PHD2-mediated hydroxylation of HIF2α underlies Pacak-Zhuang syndrome” (Communications Biology, 2024)", "molecules": {"B1": {"name": "HIF2α-CODD A530T peptide (peptide, UniProt Q99814 523-542, looked up)", "peptide": "Ac-ELDLETLTPYIPMDGEDFQL-NH2", "notes": "HIF2α (EPAS1) CODD peptide, human, as m3 with the disease mutation A530T (Class 1); also called HIF2α A530T; source: synthetic peptide (Genscript, ≥95% purity)"}, "B2": {"name": "HIF2α-CODD D539N peptide (peptide, UniProt Q99814 523-542, looked up)", "peptide": "Ac-ELDLETLAPYIPMDGENFQL-NH2", "notes": "HIF2α (EPAS1) CODD peptide, human, as m3 with the disease mutation D539N (Class 1); also called HIF2α D539N; source: synthetic peptide (Genscript, ≥95% purity)"}, "B3": {"name": "HIF2α-CODD D539Y peptide (peptide, UniProt Q99814 523-542, looked up)", "peptide": "Ac-ELDLETLAPYIPMDGEYFQL-NH2", "notes": "HIF2α (EPAS1) CODD peptide, human, as m3 with the disease mutation D539Y (Class 1); also called HIF2α D539Y; source: synthetic peptide (Genscript, ≥95% purity)"}}, "key": {"[1]": {"biological_target": "T1, PHD2 (prolyl-hydroxylase domain, residues 181–426) (Homo sapiens, UniProt Q9GZT9)", "T1 construct": "encodes for His6-PHD2 (prolyl-hydroxylase domain, residues 181–426); His6 (N, cleaved yes); made in house; host or cells: E. coli BL21(DE3)", "T1 sequence (Q9GZT9 181-426)": "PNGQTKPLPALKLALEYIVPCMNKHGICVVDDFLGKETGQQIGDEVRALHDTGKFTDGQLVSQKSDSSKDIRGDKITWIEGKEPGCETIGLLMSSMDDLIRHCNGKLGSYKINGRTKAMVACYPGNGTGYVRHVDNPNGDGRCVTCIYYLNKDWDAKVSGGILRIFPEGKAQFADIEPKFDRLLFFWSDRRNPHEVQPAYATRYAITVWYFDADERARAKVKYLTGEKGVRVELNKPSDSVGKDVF", "test": "Microscale thermophoresis (MST) binding of HIFα-CODD peptides to the catalytic domain of PHD2", "settings": "MST; for PHD2 affinity / Kd compared with another peptide (in words): with NOG; for Kd relative to WT HIF2α-CODD: fold of the HIF2α WT Kd; for Kd (MST-determined PHD2/HIFα-CODD complex dissociation constant): 25 nM Alexa 647-labeled PHD2, Tris–HCl with NOG (1 mM NOG, 10 µM FeSO4, 5 mg/ml BSA in 2x MST Buffer pH 7.5), peptide in Tris pH 8.0, room temperature, 10 min incubation, 1:1 Kd model, triplicate measurements, highest concentration omitted for Y532H and P531A (aggregation); for Kd (Fit Results, Fit Model Kd): target WT-PHD2(181-426), TargetConcentration 2.5e-8, ligand HIF2a-CODD peptide, MST-Power Medium, Excitation-Power 20 Nano - RED, hot region 19 to 20, unit of Kd not printed (doses of the same sheet are in M), Fig. 1c source data", "experimental": "To determine if there is a direct effect of HIF2α mutations on PHD2 binding, we devised a quantitative method for determining the dissociation constant (Kd) of the HIF2α-CODD peptides and the catalytic domain of PHD2 using microscale thermophoresis (MST)[13],[14] in the presence of the PHD inhibitor n-oxalylglycine (NOG) to inhibit reaction turnover.\nPHD2 was purified via a previously described but modified procedure[4],[30]. […] Cells were grown to an OD600 of 0.8 at 37 °C and expression of His6-PHD2 was induced with a final concentration of 0.5 mM IPTG. Cells were grown for an additional 3 h post-induction at 37 °C and harvested via centrifugation. Cell pellets were either used immediately for purification or stored at −80 °C for later use. Cell pellets were resuspended in Lysis Buffer (50 mM Tris–HCl pH 7.9, 500 mM NaCl, 5 mM Imidazole) containing 1x SigmaFast protease inhibitor cocktail (Sigma-Aldrich) and lysed with 3 passes through an Emulsiflex-C3 cell disruptor (Avestin) at 20-30 kPSI. […] Clarified lysates were applied to a 2 ml Ni-NTA (Thermo Scientific) column pre-equilibrated with Lysis Buffer. The beads were washed with 10 ml Lysis buffer and 2 × 30 ml of Wash Buffer (50 mM Tris–HCl pH 7.9, 500 mM NaCl, 30 mM Imidazole). His6-PHD2 was eluted by applying 10 ml Elution Buffer (50 mM Tris–HCl pH 7.9, 500 mM NaCl, 1 M Imidazole) to the column. Ni-NTA purified His6-PHD2 was dialyzed using a 10 kDa cut-off dialysis membrane against 2 L of Dialysis Buffer (50 mM Tris–HCl pH 7.5) for 4 h at 4 °C. […] Dialysis and thrombin cleavage were allowed to continue overnight at 4 °C. Thrombin-cleaved PHD2 was collected and applied to a 2 ml Ni-NTA column pre-equilibrated with Dialysis Buffer to remove uncleaved protein and cleaved His6 tags. The flow-through was collected and the beads were washed with 10 ml of Dialysis Buffer supplemented with 5 mM imidazole. The 5 mM imidazole eluate was pooled with the flow through and concentrated with an Amicon 10 kDa cut-off centrifugal concentrator (Millipore) to a volume of ~600 µl. The concentrated PHD2 was then applied to a Superdex 75 Increase 10/300 GL column (Cytiva) equilibrated with Dialysis Buffer or Labeling Buffer (50 mM HEPES pH 7.5, 150 mM NaCl) depending on the intended use of the sample. Eluted fractions containing PHD2 were collected and pooled. For the His6-PHD2 used in the indirect hydroxylation assay, no thrombin was added during dialysis steps therefore the His6-tag was not removed and the subsequent passage of the sample through Ni-NTA beads to remove His6-tags was not performed. Otherwise, the purification protocol for His6-PHD2 is the same as thrombin-cleaved PHD2. All purification steps were analyzed by SDS–PAGE and the Superdex 75 Increase chromatogram was used to assess size and aggregation, see Supplementary Fig. 5 for a representative purification assessment.\nLabeling was conducted at room temperature for 1 h in the dark. Excess dye was then removed first by the passage of the sample through a PD-10 desalting column containing Sephadex G-25 resin (Cytiva) equilibrated with Dialysis Buffer and then any remaining excess dye was removed via repeated 10-fold dilution in Dialysis Buffer and subsequent concentration in an Amicon 10 kDa cut off centrifugal filter until the dye could no longer be detected in the concentrator flow through by Absorbance at 650 nm.\nMST measurements were taken using a Monolith NT.115 (Nanotemper Technologies) at room temperature using standard MST capillaries (Nanotemper Technologies). […] For each HIFα-CODD peptide, ~1 mg dry weight of peptide was dissolved in 200 µl of 50 mM Tris–HCl pH 8.0 and concentrations were measured using UV absorbance at 280 nm for most peptides and BCA assay (Thermo Scientific) for Y532C and Y532H peptides using known concentrations of the WT HIF2α-CODD peptide to create a standard curve."}, "[2]": {"biological_target": "T2, Alexa 647 labeled PHD2 (catalytic / prolyl-hydroxylase domain, residues 181-426) (human, UniProt Q9GZT9 181-426, Alexa Fluor 647 N-hydroxysuccinimide ester dye, 1-2 dye molecules per protein molecule)", "T2 construct": "PHD2, prolyl-hydroxylase domain (catalytic domain), residues 181-426, from pET-46-HIS6-PHD2; Same construct as m2, dye-labeled for MST; also called PHD2-647; source: E. coli BL21(DE3), purified (Ni-NTA, thrombin cleavage, Superdex 75), labeled with Alexa Fluor 647 NHS ester", "T2 sequence (Q9GZT9 181-426)": "as above", "test": "MST; 25 nM Alexa 647 labeled PHD2, unlabeled peptide in 16 two-fold dilutions; room temperature; MST Buffer 50 mM Tris-HCl pH 7.5, 1 mM NOG, 10 µM FeSO4, 5 mg/ml BSA mixed 1:1 with peptide in 50 mM Tris-HCl pH 8.0; 1:1 Kd model; triplicate", "settings": "both partners purified"}}, "note": "Peptide text beside a SMILES is read from it.", "data": [{"molecule": "CC[C@H](C)[C@H](NC(=O)[C@H](Cc1ccc(O)cc1)NC(=O)[C@@H]1CCCN1C(=O)[C@@H](NC(=O)[C@H](CC(C)C)NC(=O)[C@@H](NC(=O)[C@H](CCC(=O)O)NC(=O)[C@H](CC(C)C)NC(=O)[C@H](CC(=O)O)NC(=O)[C@H](CC(C)C)NC(=O)[C@H](CCC(=O)O)NC(C)=O)[C@@H](C)O)[C@@H](C)O)C(=O)N1CCC[C@H]1C(=O)N[C@@H](CCSC)C(=O)N[C@@H](CC(=O)O)C(=O)NCC(=O)N[C@@H](CCC(=O)O)C(=O)N[C@@H](CC(=O)O)C(=O)N[C@@H](Cc1ccccc1)C(=O)N[C@@H](CCC(N)=O)C(=O)N[C@@H](CC(C)C)C(N)=O", "note": "[HIF2α A530T]", "values": [{"measurement": "PHD2 affinity / Kd compared with another peptide (in words)", "setting": "[1]", "value": "significant effect on PHD2 binding affinity"}]}, {"molecule": "CC[C@H](C)[C@H](NC(=O)[C@H](Cc1ccc(O)cc1)NC(=O)[C@@H]1CCCN1C(=O)[C@H](C)NC(=O)[C@H](CC(C)C)NC(=O)[C@@H](NC(=O)[C@H](CCC(=O)O)NC(=O)[C@H](CC(C)C)NC(=O)[C@H](CC(=O)O)NC(=O)[C@H](CC(C)C)NC(=O)[C@H](CCC(=O)O)NC(C)=O)[C@@H](C)O)C(=O)N1CCC[C@H]1C(=O)N[C@@H](CCSC)C(=O)N[C@@H](CC(=O)O)C(=O)N[C@@H](Cc1c[nH]c2ccccc12)C(=O)N[C@@H](CCC(=O)O)C(=O)N[C@@H](CC(=O)O)C(=O)N[C@@H](Cc1ccccc1)C(=O)N[C@@H](CCC(N)=O)C(=O)N[C@@H](CC(C)C)C(N)=O", "note": "[HIF2α G537W] (Ac-ELDLETLAPYIPMDWEDFQL-NH2)", "values": [{"measurement": "Kd relative to WT HIF2α-CODD", "setting": "[1]", "value": 2.4, "unit": "× WT"}]}, {"molecule": "CC[C@H](C)[C@H](NC(=O)[C@H](Cc1ccc(O)cc1)NC(=O)[C@@H]1CCCN1C(=O)[C@H](C)NC(=O)[C@H](CC(C)C)NC(=O)[C@H](CCSC)NC(=O)[C@H](CCC(=O)O)NC(=O)[C@H](CC(C)C)NC(=O)[C@H](CC(=O)O)NC(=O)[C@H](CC(C)C)NC(=O)[C@H](CCC(=O)O)NC(C)=O)C(=O)N1CCC[C@H]1C(=O)N[C@@H](CCSC)C(=O)N[C@@H](CC(=O)O)C(=O)NCC(=O)N[C@@H](CCC(=O)O)C(=O)N[C@@H](CC(=O)O)C(=O)N[C@@H](Cc1ccccc1)C(=O)N[C@@H](CCC(N)=O)C(=O)N[C@@H](CC(C)C)C(N)=O", "note": "[HIF2α T528M] (Ac-ELDLEMLAPYIPMDGEDFQL-NH2)", "values": [{"measurement": "PHD2 affinity / Kd compared with another peptide (in words)", "setting": "[1]", "value": "intermediate affinity"}]}, {"molecule": "CC[C@H](C)[C@H](NC(=O)[C@H](Cc1c[nH]cn1)NC(=O)[C@@H]1CCCN1C(=O)[C@H](C)NC(=O)[C@H](CC(C)C)NC(=O)[C@@H](NC(=O)[C@H](CCC(=O)O)NC(=O)[C@H](CC(C)C)NC(=O)[C@H](CC(=O)O)NC(=O)[C@H](CC(C)C)NC(=O)[C@H](CCC(=O)O)NC(C)=O)[C@@H](C)O)C(=O)N1CCC[C@H]1C(=O)N[C@@H](CCSC)C(=O)N[C@@H](CC(=O)O)C(=O)NCC(=O)N[C@@H](CCC(=O)O)C(=O)N[C@@H](CC(=O)O)C(=O)N[C@@H](Cc1ccccc1)C(=O)N[C@@H](CCC(N)=O)C(=O)N[C@@H](CC(C)C)C(N)=O", "note": "[HIF2α Y532H] (Ac-ELDLETLAPHIPMDGEDFQL-NH2)", "values": [{"measurement": "PHD2 affinity / Kd compared with another peptide (in words)", "setting": "[1]", "value": "near wild-type affinity"}, {"measurement": "Kd relative to WT HIF2α-CODD", "setting": "[1]", "value": 1.2, "unit": "× WT"}]}, {"molecule": "HIF2α L529P: Class 1 mutant HIF2α-CODD peptide (Ac-ELDLETPAPYIPMDGEDFQL-NH2)", "values": [{"measurement": "Kd (MST-determined PHD2/HIFα-CODD complex dissociation constant)", "setting": "[1]", "value": "No binding"}, {"measurement": "Kd (Fit Results, Fit Model Kd)", "setting": "[1]", "value": 0.01043}]}, {"molecule": "HIF2α P531L: Class 1 mutant HIF2α-CODD peptide (Ac-ELDLETLALYIPMDGEDFQL-NH2)", "values": [{"measurement": "Kd (MST-determined PHD2/HIFα-CODD complex dissociation constant)", "setting": "[1]", "value": "No binding"}]}, {"molecule": "HIF2α P531S: Class 1 mutant HIF2α-CODD peptide (Ac-ELDLETLASYIPMDGEDFQL-NH2)", "values": [{"measurement": "Kd (MST-determined PHD2/HIFα-CODD complex dissociation constant)", "setting": "[1]", "value": "No binding"}, {"measurement": "Kd (Fit Results, Fit Model Kd)", "setting": "[1]", "value": 0.01316}]}, {"molecule": "HIF2α Y532C: Class 1 mutant HIF2α-CODD peptide (Ac-ELDLETLAPCIPMDGEDFQL-NH2)", "values": [{"measurement": "PHD2 affinity / Kd compared with another peptide (in words)", "setting": "[1]", "value": "strongly detrimental to the interaction of PHD2 with HIF2α-CODD"}]}, {"molecule": "B1", "values": [{"measurement": "Kd", "setting": "[2]", "value": "627 ± 126", "unit": "µM"}]}, {"molecule": "B2", "values": [{"measurement": "Kd", "setting": "[2]", "value": "760 ± 274", "unit": "µM"}]}, {"molecule": "B3", "values": [{"measurement": "Kd", "setting": "[2]", "value": "381 ± 50", "unit": "µM"}]}]}
